Data on two molecules can be found in patent US20190322748A1 (Hoffmann-La Roche, published 2019).

The target of test [1] is T1, full-length human Tim3 on cells (CHO-K1 stably transfected with plasmid 15312_hTIM3-fl_pUC_Neo) (human, UniProt Q8TDQ0 22-301). As to the kind of experiment: cell-based or functional assay.
The target in test [2] is T1, full-length human Tim3 on cells (CHO-K1 …). As to the kind of experiment: cell-based or functional assay. This is another data set of the same source.
For test [3], the target named is T2, biotinylated PD1-ECD-AviHis (human, UniProt Q15116 25-170, biotinylated, site not stated).
T2 construct: also called huPD1; hu PD1
The test is described as follows: ELISA on coated biotinylated PD1-ECD-AviHis.

The target in test [4] is T3, biotinylated TIM3-ECD-AviHis (human, UniProt Q8TDQ0 22-202, biotinylated, site not stated).
T3 construct: also called huTIM3; Hu TIM3
The test is described as follows: ELISA on coated biotinylated TIM3-ECD-AviHis. On the technique in general: In an ELISA, binding on a coated surface is turned into a signal by an enzyme label.

Test [5] addresses T4, full-length human PD1 on cells (CHO-K1 stably transfected with plasmid 15311_hPD1-fl_pUC_Neo) (human, UniProt Q15116 25-288). As to the kind of experiment: cell-based or functional assay.
The target of test [6] is T4, full-length human PD1 on cells (CHO-K1 …). The test is described as follows: cell-based or functional assay. This is another data set of the same source.
A further test concerns the target T5, human PD1-ECD (human, UniProt Q15116 25-170).
T5 construct: SPR analyte; also called hu PD1-ECD
The test is described as follows: SPR Biacore T200, Ab captured on anti-human Fc IgG, hu PD1-ECD in solution, 25 C.

A further test addresses T6, monomeric human Tim3-ECD (human, UniProt Q8TDQ0 22-202).
T6 construct: SPR analyte; also called huTim3; hu Tim3-ECD
As to the kind of experiment: SPR Biacore T200, Ab captured on anti-human Fab IgG, hu Tim3-ECD in solution, 25 C. In general terms: SPR reads the build-up and loss of mass on a sensor chip optically.

For test [7], the target named is T7, PD1-SNAP (on transiently transfected HEK293 cells) (human, SNAP-tag labelled with SNAP-Lumi4-Tb).
T7 construct: also called SNAP-tagged PD1
As to the kind of experiment: cell-based TR-FRET (Tag-lite) on HEK293 cells co-transfected with PD1-SNAP (Lumi4-Tb) and Tim3-CLIP (Clip-Red), 1 h at 4 C; signal needs both receptors bound at once by one antibody; mean +/- SD, n=3. (In TR-FRET formats the signal depends on donor and acceptor labels being close together.)

The target of test [8] is T8, Tim3-CLIP (on transiently transfected HEK293 cells) (human, CLIP-tag labelled with Clip-Red).
T8 construct: The plasmid encodes residues 1-202 including the signal peptide; also called CLIP-tagged TIM3
Described as above.

B1: Chimeric TIM3-0016 variant (0018) (antibody, human IgG1, V domains shown)
VH: QVTLKESGPGILQPSQTLSLTCSFSGFSLSTSGMSVGWIRQPSGKGLEWLAHIWLNDDVFFNPALKRRLTISKDTSNNQVFLQIASVVTADTATYYCVRANGYLYALDYWGQGISVTVSS
VL: QIVLTQSPAIMSASPGQKVTITCSASSSVNYTQWYQQKLGSSPKLWIYDAFKLAPGVPARFSGSGTGTSYSLTISSMEAEDAASYFCHQWSSYPWTFGGGTKLEIK
notes: also called Chimeric TIM3-0018
With B1, in test [1], the “EC50 of IFN-g secretion/release in MLR, donors D1 + D5, with 0.1 µg/ml anti-PD1 mAb” value is 4.2 nM and the “EC50 of IFN-g secretion/release in MLR, donors D2 + D3, with 0.1 µg/ml anti-PD1 mAb” value was 3.1 nM. Besides, in test [2], the “EC50 of IFN-gamma secretion in MLR, donors D2 + D6” value was greater than 274 nM. In test [3], the binding result is “no binding”. Moreover, in test [4], a half-maximal response (EC50) required 0.15 nM.

B2: 1+1 PD1TIM3_0389 (based on chimeric PD1-0103 / Tim3-0028) (bispecific antibody, human IgG1, kappa, L234A L235A)
heavy 1: not shown
heavy 2: EVQLQQSVAELVRPGASVKLSCTASGFNIKTTYMHWVKQRPEQGLEWIGRIDPADDNTKYAPKFQGKATITADTSSNTAYLQLSSLTSEDAAIYYCVRDFGYVAWFAYWGQGTLVTFSAASTKGPSVFPLAPSSKSTSGGTAALGCLVEDYFPEPVTVSWNSGALTSGVHTFPAVLQSSGLYSLSSVVTVPSSSLGTQTYICNVNHKPSNTKVDEKVEPKSCDKTHTCPPCPAPEAAGGPSVFLFPPKPKDTLMISRTPEVTCVVVDVSHEDPEVKFNWYVDGVEVHNAKTKPREEQYNSTYRVVSVLTVLHQDWLNGKEYKCKVSNKALGAPIEKTISKAKGQPREPQVCTLPPSRDELTKNQVSLSCAVKGFYPSDIAVEWESNGQPENNYKTTPPVLDSDGSFFLVSKLTVDKSRWQQGNVFSCSVMHEALHNRFTQKSLSLSPGK
light 1: EVILVESGGGLVKPGGSLKLSCAASGFSFSSYTMSWVRQTPEKRLDWVATISGGGRDIYYPDSVKGRFTISRDNAKNTLYLEMSSLMSEDTALYYCVLLTGRVYFALDSWGQGTSVTVSSASVAAPSVFIFPPSDEQLKSGTASVVCLLNNFYPREAKVQWKVDNALQSGNSQESVTEQDSKDSTYSLSSTLTLSKADYEKHKVYACEVTHQGLSSPVTKSFNRGEC
light 2: NIVMTPTPKFLPVSSGDRVTMTCRASQSVDNYVAWYQQKPGQSPKLLIYYASNRYIGVPDRFTGSGSGTDFTFTISSVQVEDLAVYFCQQHYSSPYTFGSGTKLEIKRTVAAPSVFIFPPSDRKLKSGTASVVCLLNNFYPREAKVQWKVDNALQSGNSQESVTEQDSKDSTYSLSSTLTLSKADYEKHKVYACEVTHQGLSSPVTKSFNRGEC
notes: 1+1 CrossMAb Vh-VL: HC1/LC1 form the crossed PD1 arm, HC2/LC2 the TIM3 arm; knobs into holes; also called PD1TIM3-0389 (0357); Bispec AB 0389 (1+1)
As for B2, the “EC50 of IFN-gamma secretion in MLR, donors D2 + D6” value in test [5] stood at 2.8 nM. Moreover, in test [6], the “EC50 of IFN-gamma secretion in MLR, donors D1 + D3” value came to 2 nM. In addition, the “EC50 of IFN-gamma secretion in MLR, donors D2 + D4” value in test [6] is 1.9 nM. Also, the EC50 (usually the concentration giving half of the maximal effect) in test [3] was 0.13 nM. Besides, the Kd – broadly, the equilibrium constant for the complex coming apart – in the test with human PD1-ECD turned out to be 1.3 nM; with monomeric human Tim3-ECD, 245 nM. Further, the binding result in test [7] and in test [8] was “binds” in each case.
